Test results: publication PMC4576209, “Biochemical characterization of FIKK8 – A unique protein kinase from the malaria parasite Plasmodium falciparum and other apicomplexans” (Molecular and Biochemical Parasitology, 2015)

Substrate: Nc1ncnc2c1ncn2[C@@H]1O[C@H](COP(=O)(O)OP(=O)(O)OP(=O)(O)O)[C@@H](O)[C@H]1O
Assay: LDH-PK coupled kinase assay
Format: biochemical, Cryptosporidium parvum
Details: peptide substrate; MgCl2 stated only for autophosphorylation

B1: CpFIKKd (Cryptosporidium parvum Iowa II) (protein)
chain: GKNDKVCYTWKEAKQLISKLKSSTKLYKFNGVPFSDWAHEKIPTLGASPTSCRVQEMFKSRIYLEKNNEVYATLFIKKIPRNIWSKQWEMHEIWDGDYVTDGEDFVMEAAALAFLQNHSVGIAPRLYAILEHCEDNCNDINSNKESKIQYRNIANRNACDYLLSKDTTHIILVSEHYGEDLLDYLDKCEKKNRNLTDKEKKELQYKLALALNNLHSKGLCHLDFTPENILIGPNGINICDFAKSTPIITKNPRHTHYSRKSPKNHLSENFNSNNTSFNFINPPPEAYCEFESCEPTVGKGAYMPPECWKIFWRLEENKIQFPLEELMDIDTYNRRSNYSYFNEFSRIHNKSPIKCQDRSMFYFNTRIADIYMLGIIMFWIWSDGGIWKYSDTRQDHRYQNLVFSDINFDVFRECRGWNKQLKSLLKKMLEPDPNKRITMSEILSDPWWKCPLDE
notes: kinase domain plus N-terminal extension (38 or more residues); E. coli
B1 gave a Km of 48.0 ± 0.9 µM, a kcat of 1.3 ± 0.0083 s⁻¹ and a kcat/Km of 26700 M⁻¹ s⁻¹.
